From publication PMC4718742 (Nature chemical biology, 2015)

Assays:
human CypA (1–165) [1] = biological target: T1, human CypA (1–165) (human, UniProt P62937 1-165); test: NMR titration
human CypA (1–165) [2] = biological target: T1, human CypA (1–165)

Binder: PEPGPYAQPS [CrkII peptide (Pro216-Ser225)]
- binding result (human CypA (1–165) [1]): binds

B1: CrkII^P218F (natural protein)
chain: MAGNFDSEERSSWYWGRLSRQEAVALLQGQRHGVFLVRDSSTSPGDYVLSVSENSRVSHYIINSSGPRPPVPPSPAQPPPGVSPSRLRIGDQEFDSLPALLEFYKIHYLDTTTLIEPVSRSRQGSGVILRQEEAEYVRALFDFNGNDEEDLPFKKGDILRIRDKPEEQWWNAEDSEGKRGMIPVPYVEKYRPASASVSALIGGNQEGSHPQPLGGPEFGPYAQPSVNTPLPNLQNGPIYARVIQKRVPNAYDKTALALEVGELVKVTKINVSGQWEGECNGKRGHFPFTHVRLLDQQNP
- fold higher affinity than wild-type CrkII (human CypA (1–165) [2]): ~20 fold
